Test results: the RNAGym collection of RNA variant scans (doi:10.1073/pnas.2313332121)
Fewer inactive variants are shown than the library holds.

B1: TPR 5TU (parent)
chain: GGAUCUUCUCGAUCUAACAAAAAAGACAAAUCUGCCACAAAGCUUGAGAGCAUCUUCGGAUGCAGAGGCGGCAGCCUUCGGUGGCGCGAUAGCGCCAACGUUCUCAACUAUGACACGCAAAACGCGUGCUCCGUUGAAUGGAGUUUAUCAUG

Variants of: B1
Test: polymerase ribozyme fitness, log enrichment relative to wild type (log ratio); higher = more active; in vitro selection for triplet polymerase activity
In short: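 Streptavidin-bead capture of gel-excised extended constructs, followed by RT-PCR, closed a single triplicate in vitro selection round. That round began by annealing PCR-built, transcribed mutant libraries of each subunit of a heterodimeric triplet polymerase ribozyme with a biotinylated primer, the partner subunit and triplets, then incubating them frozen at −7 °C. After Illumina sequencing of inputs and outputs, genotypes needed ≥10 input reads and ≥1 read per output. Fitness is the base-2 logarithm of genotype enrichment over wild-type enrichment, using inverse-variance-weighted replicate averages.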

Row | Variant | polymerase ribozyme fitness (log ratio)
1 | C85U U134C U144A C149A | -4.1
2 | C10U A24U C35U A91G C93G A98C C118U | ≤ -4.2
3 | U13G C35U C72U C96G C105U G133C | ≤ -4.2
4 | U53A C85A G124U G143C U146C | ≤ -4.2
5 | A12C U101G A137G | -0.888
6 | U55C C75G C76U G80A C87G C108U | ≤ -4.2
7 | U7G G50U | -3.02
8 | A40G G86A C95U C103G C108U C125G | ≤ -4.2
9 | A47U U55A | -0.542
10 | A17U G71A C87G G140U | ≤ -4.2
11 | G70U A73U A89G C95G G141U | ≤ -4.2
12 | A40C U144A | -0.312
13 | G46C C99G U101G C105G G124A | -2.54
14 | C116U U134C | -0.00566
15 | A52C G58U G59A C85A | -2.15
16 | U31C C63G G83A C96U | 1.61
17 | U7A A28U A40U U55A C57A C76U U78G C96G C123G | ≤ -4.2
18 | G84C C85G | -4.03
19 | C14U C79A G84A A150G | ≤ -4.2
20 | G34U A41G A47C C116U | ≤ -4.2
21 | C54U U56C C93U A150U | 0.278
22 | A24U U31G A52C G65A G84C C87U A119G | ≤ -4.2
23 | A64U A110G | ≤ -4.2
24 | C14A A23C U56A C75G U77A C93U C95G U102C | ≤ -4.2

Row | Variant | polymerase ribozyme fitness (log ratio)
25 | A22U G34A G74U G94A A119C G143A | ≤ -4.2
26 | A40C C57U A60G U61A | -2.29
27 | A3G A20C U53A G81C A121G | -1.59
28 | G83U U102C | -1.16
29 | G25C G83C C87G A91G | ≤ -4.2
30 | A23U C54A G83U U102G | ≤ -4.2
31 | G74A A150U | -2.61
32 | A29C G58U | -4.16
33 | G46C G59C G88A | ≤ -4.2
34 | C51U G62A U139G | -0.262
35 | C8A C35U C43A G83C G141U | ≤ -4.2
36 | G126U G152U | -2.47
37 | G11C U56A G86A | ≤ -4.2
38 | C10G C36G A47U G65U C79G C93U C99G G126C U144C U148C | ≤ -4.2
39 | A41C G81U G86U U104C | -1.73
40 | G141C A150G | -3.78
41 | C27G C72U G83U A91U C93U | ≤ -4.2
42 | A47U U53A | -1.33
43 | A47G G84U A106G | -2.24
44 | U55A U135A | -1.74
45 | A110G A122G | -2.84
46 | G65U C72A C85A U135G | ≤ -4.2
47 | C32U C75U G88A A115C | ≤ -4.2
48 | U31A G86A U134C | -0.431

Row | Variant | polymerase ribozyme fitness (log ratio)
49 | A66C A73C | ≤ -4.2
50 | A37G A47U G81C C95G U102G A120U U134C U135G A137C | ≤ -4.2
51 | U55C G92C | -0.135
52 | A28U C87U A119C A138U G140C | ≤ -4.2
53 | U82C A115U G136C | -3.84
54 | U55G C99A | -3.24
55 | A3U U7A A37U G67U A91C G143A | ≤ -4.2
56 | A17U C85A C96G | -2.34
57 | A37U C85G C125U G141A | ≤ -4.2
58 | G25U C85G C132G | ≤ -4.2
59 | A29U G50A C116U C129G | ≤ -4.2
60 | A91U G141A | -4.05
61 | U56A G62A C76U G81A C87U C95U | -1.49
62 | C63U G86A | -2.99
63 | A28U C93U C118U A121G | ≤ -4.2
64 | G25U G81A G94U A120U G141C | -3.76
65 | A40U G58C A113C G124A | -2.93
66 | U6C A49G G59A G92A U111A | ≤ -4.2
67 | A28U A29C U45A G58C C85U C105U A106G | ≤ -4.2
68 | A47C C57A C93U | -1.3
69 | A19C A150G | -0.495
70 | A12G A37U U55G A113C | ≤ -4.2
71 | C76A U82G C96U | -0.697
72 | C18G A113G U134A | -3.95

Row | Variant | polymerase ribozyme fitness (log ratio)
73 | A52G C93U C96U G136C A138G U146A | ≤ -4.2
74 | U6G A26C G136A A142U U146A | ≤ -4.2
75 | C18A G70A G84U U130G | ≤ -4.2
76 | U4C U6G U55A C93G C103G A150U | ≤ -4.2
77 | C35U U56A U61A C63U A64G | ≤ -4.2
78 | G25C A64C C96U | ≤ -4.2
79 | U13C G94A | -0.431
80 | A16C A22U G62A G74A G81C A106G G141C | ≤ -4.2
81 | C54A C79A C87U U144C A150G U151A | ≤ -4.2
82 | G81A C95A A98U | -0.289
83 | G58A A89U C96A A115G | -1.15
84 | U15G | -0.334
85 | G42A U78G C116A C125G | ≤ -4.2
86 | A20U U45A G48U A64G A137U | ≤ -4.2
87 | U15G A16U A41C A52C G81C G83U A106U U127A | ≤ -4.2
88 | C54U G71U C85A C96G G133C U145G G152A | ≤ -4.2
89 | A28C G83C G128U | ≤ -4.2
90 | A39G C87U A147C C149A | ≤ -4.2
91 | A98U A138G | -3.32
92 | C51U C96G U144A | -1.45
93 | A3U G88A A110G | ≤ -4.2
94 | A41C U56A A91G A97G A142U | -3.86
95 | U4C U55A | -0.767
96 | A23U G84A | -3.32

Row | Variant | polymerase ribozyme fitness (log ratio)
97 | C10U C85A | -3.35
98 | U53G C87G G133U | ≤ -4.2
99 | A16U U61A C95U | -3.06
100 | A16G U134G | -3.44
101 | C32G U55A G58A G68A C85U G88C C93A A106G C116A U135A | ≤ -4.2
102 | A26U A91G G140C C149A | ≤ -4.2
103 | A23C A29U G68C U82G G133U U134A A138U | ≤ -4.2
104 | U6C C10U A20C A122C | ≤ -4.2
105 | G48A G62A C96A C132G U134G A147C | ≤ -4.2
106 | U4A A21U C38U C85A C87G C103A | ≤ -4.2
107 | G58A A91C | ≤ -4.2
108 | C85A U135C | -2.15
109 | C69U G126A | 0.958
110 | G94U C96U | -0.719
111 | U53A U55G C57A | 0.733
112 | A39U U53A A91G A97G U111G | -4.05
113 | C18G A20C C32A A40C U53A A91G | ≤ -4.2
114 | C10U C35U A47C C85A A89C C93U C95U | ≤ -4.2
115 | C96G C103U | -0.445
116 | U44A U45A C51U C95A C103G | ≤ -4.2
117 | C8G C85U G88U U145C | ≤ -4.2
118 | A41G C75G | -2.98
119 | C85U U151G | -4.14
120 | A47C C129G | -4.19

Row | Variant | polymerase ribozyme fitness (log ratio)
121 | U56A G83C G100U | ≤ -4.2
122 | G59A C93A U135C U146A | -3.8
123 | C96A A98U | -0.335
124 | A40G G67U C85A A98U U144C U145A | ≤ -4.2
125 | G58A C75G C125G C129A U151G | ≤ -4.2
126 | C93U C131A | -2.97
127 | C79A U82A C96A A107U U139A | ≤ -4.2
128 | G50C C93A | ≤ -4.2
129 | C32A A39U C79A C85A C129G | ≤ -4.2
130 | A73U C118U | -0.982
131 | A22U C96G | -0.148
132 | A12C C96U | -0.42
133 | C5A U9G A73G C87U A120U C123U A147G | -3.95
134 | U4A U15G A91C C114U C125A | ≤ -4.2
135 | U55A C87U U146A | -1.36
136 | G86A G94C C132U G141C | ≤ -4.2
137 | C18U U53A C95U C99G | -3.76
138 | G70U G84U C87U G100A | ≤ -4.2
139 | C36U U61G | -2.22
140 | C8G C14U A29U G50U C54U C75G A119U | ≤ -4.2
141 | A3G U13G A21U A40U C69A C79G G80A G83U C85U G86U G136C | ≤ -4.2
142 | U61G C99U | -2.77
143 | G42U G65A C95U U139G | ≤ -4.2
144 | U61G C85A G141A | -1.58

Row | Variant | polymerase ribozyme fitness (log ratio)
145 | U9A A39C U53G G92A G112C A113G C149G | ≤ -4.2
146 | A39U C43U C85U G117U G126C C132G | ≤ -4.2
147 | G50A C72U A98C C99A | ≤ -4.2
148 | C93U A98G | -1.59
149 | C10U C32A C51G A106G A142C U148A | ≤ -4.2
150 | A19G U82G G94A C96U A97U G124U | -2.53
151 | A40U A106G C131U | 1.54
152 | C57G C72G C79U C103G | ≤ -4.2
153 | C54U G83U C85A U90G | ≤ -4.2
154 | A3G U9G A16G A21C G84A G133C G141A | ≤ -4.2
155 | G11U C27U A29C C75U G83C G126U | ≤ -4.2
156 | A30U U56A G62A G126A | -3.5
157 | A17G G84U G126A | -1.39
158 | U13G G65C G83A | ≤ -4.2
159 | A64C C69U G84A G136U G141U | ≤ -4.2
160 | C8U A24U A30U U90A G92C | ≤ -4.2
161 | A19C G58C C95U G140U | -3.88
162 | C96A U101C U109A C118A | -1.54
163 | C51G U56A G117U | -2.86
164 | A12C G94U A150G | -2.61
165 | A23G C35A A142G | -3.78
166 | A89C A97U U101G A110G U134G G141A | ≤ -4.2
167 | C5A G81A | 0.566
